{
  "source": "IntAct's records for PubMed 22705394",
  "parents": {"B1": {"name": "Ras-related protein Rab-21 (Homo sapiens), Q9UL25 (parent)", "chain": "MAAAGGGGGGAAAAGRAYSFKVVLLGEGCVGKTSLVLRYCENKFNDKHITTLQASFLTKKLNIGGKRVNLAIWDTAGQERFHALGPIYYRDSNGAILVYDITDEDSFQKVKNWVKELRKMLGNEICLCIVGNKIDLEKERHVSIQEAESYAESVGAKHYHTSAKQNKGIEELFLDLCKRMIETAQVDERAKGNGSSQPGTARRGVQIIDDEPQAQTSGGGCCSSG"}},
  "data": [
    {"variants_of": "B1", "details": "with macf1_human MACF1, Q9UPN3", "values": [
      {"variant": "T33N", "effect of a mutation on the interaction": "decreasing interaction"}
    ]},
    {"variants_of": "B1", "details": "with MACF1, Q9UPN3-1", "values": [
      {"variant": "T33N", "effect of a mutation on the interaction": "decreasing interaction"}
    ]}
  ]
}
